# Source: patent US20140242073A1, “CARTILAGE/BONE DESTRUCTION SUPPRESSOR” (priority 2011, published 2014)
# B1: 4A67: IgM-type mouse anti-rat FR-β monoclonal antibody (antibody, V domains shown)
# VH: QIQLVQSGPELKKPGETVKISCKASGYTFTNYGMNWVKQAPGKGLKWMGWINTYTGEPTYTDDFKGRFAFSLETSASTAYLQINNLKNEDMATYFCARKGAMDYWGQGTSVTVSS
# VL: QIVLTQSPAIMSASPGEKVTMTCSASSSVSYMHWYQQKSGTSPKRWIYDTSKLASGVPARFSGSGSGTSYSLTISSMEAEDAATYYCQQWSSNPPTFGSGTKLEIK
# Columns and labels:
# cartilage cells = conditions: intra-articular administration, Nakazawa et al. 2002; cited from earlier work
# [1] = test system: thioglycolate-induced peritoneal macrophages; assay: Flow cytometry reactivity of antibody with peritoneal macrophages; assay type: binding, Lewis rats; conditions: Lewis rat peritoneal macrophages, co-stained anti-CD11b/c
# Method: (§1) After the end of reaction, stainability was measured using a flow cytometer. […], 3% thioglycolate was intraperitoneally administered to Lewis rats, and peritoneal macrophages were collected 4 days later. The negative control antibody or the 4A67 antibody was added to the macrophages adjusted to 1×10^5 for the same reaction as above, followed by further adding an anti-CD11b/c antibody labeled with phycoerythrin or the negative control antibody labeled with phycoerythrin for reaction. After the reaction, stainability was measured using a flow cytometer.
# [2] = test system: rat FR-β-expressing B300-19; assay: Flow cytometry reactivity of antibody with FR-β-expressing B300-19 cells; assay type: binding; conditions: 1×10^5 cells, APC-labeled anti-mouse IgM
# Method: The resultant hybridomas were cloned by limiting dilution culture adjusted to 1 cell per well of a 96-well plate. The cloned cells were sorted by reactivity with FR-β-expressing cells. The isotype of the mouse monoclonal antibodies was determined using a mouse immunoglobulin isotyping ELISA kit (Pharmingen). As a result, the mouse anti-rat FR-β monoclonal antibodies obtained were IgM-type clone 4A67. The reactivity of these antibodies to the antigen was analyzed by flow cytometry.
# as §1
Molecule,apoptotic death of cartilage cells (cartilage cells),reactivity with thioglycolate-induced peritoneal macrophages [1],reactivity with rat FR-β-expressing B300-19 [2]
"C[C@H]1C[C@@H]2[C@H]([C@@H](O)C[C@@]3(C)[C@H]2CC[C@]3(O)C(=O)CO)[C@@]2(C)C=CC(=O)C=C12 [Steroid, methylprednisolone]",causes the apoptotic death of cartilage cells,–,–
B1,–,reacts,reacts
